{
  "source": "the nanobody polyreactivity screen of Harvey et al. (2022)",
  "data": [
    {"experiment": "yeast display, Sf9 membrane polyspecificity reagent, FACS + sequencing; frameworks hold sequencing errors", "method_in_brief": "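Nanobodies came from a synthetic yeast display library in Saccharomyces cerevisiae BJ5465, induced with galactose for 36–48 hours and stained for 1 hour at 4 °C with 10% biotinylated, detergent-solubilized Sf9 membrane reagent. Cells were enriched on streptavidin microbeads and then FACS-sorted, with low and high (top ~1%) gates set on anti-HA fluorescence for expression and streptavidin fluorescence for reagent binding. Each polyreactivity label reflects the gate a clone came from. Genes were amplified by colony PCR, sequenced by MiSeq 2 × 250 and filtered by CDR length.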", "values": [
      {"sequence": "QVQLQESGGGLVQVGGSQRLSCAASGNIFYNYAMGWYRHAQGKEREFDATINHGTSINYADSVKGRFTISRDNAKNTVYLQMNSLKPEDTAVYYCAARVVRYGYKYYYWGQGTQVTLSS", "polyreactivity (PSR sort gate)": "low polyreactivity"},
      {"sequence": "QVQLQESGGGMVQAGGSLRLSCAASGSIFADVQMGWYRQAPGKVRELVASINFRGTTTYYADSVKGRFTISRDNAKNTVYLQMSSLKPEDTEVYYCAVGRSEGGDFAYWGQGTHVTVSS", "polyreactivity (PSR sort gate)": "low polyreactivity"},
      {"sequence": "QVQLQESGGGMVQAGGSLRLSCAASGYISWADYKGWYRQAPGKERELVAGIGYGSTTYYADSVKGRFTISRDNAINTAYLQMNSLKPEDTAVYYCAVGWYRDTAYKYWGHGTQVTVSS", "polyreactivity (PSR sort gate)": "low polyreactivity"},
      {"sequence": "QVQLQESGGGPVLAGCSLRLSCAASGTIFVRLDMGWYRQAPGKEREFVATIGSGSSTYYADSVKGSFTISRDNVKNTVYLQMNSLKQEDTAVYYCAVSAAEQSRHYYWDQGTQVTVSS", "polyreactivity (PSR sort gate)": "low polyreactivity"},
      {"sequence": "QVQLQESGGGPVLAGGRLRLSCAASGTIFVRLDMGWYRQAPGKEREFVATIGSGSSTYYADSVKGSFTISRDNVKNTVFLQMNTLIPEDTAVYYCAVSAAEQSRHYYWDQGTQVTVSS", "polyreactivity (PSR sort gate)": "low polyreactivity"},
      {"sequence": "QVQLQESGGGPVLAGGSLRLSCEASGTIFVRLDMGWYRQAPGKEREFVATIGSGSSTYYADSVKGSFTISRDNVKNTVYLQMNSLKPEETAVYYCAVSAAEQSRHYYWDQGTQVTVSS", "polyreactivity (PSR sort gate)": "low polyreactivity"},
      {"sequence": "QVQLQESGGGQVLAGGSLRLSCAASGSISAQAYMGWDRQAPGKEREHVAGINYGDNTNYADSVKGRFTISRDNEHRVSADEQPVSGRYRGVLLRGFLELFYYYIYWGQGTQVNVSS", "polyreactivity (PSR sort gate)": "high polyreactivity"},
      {"sequence": "QVQLQESGGGQVQAGGSLRLSCAASGTIFLYAFKGWYRQAPGKERELVAAIDVGTTTNYADSVKGRFTISRDNAKNTVYLQMNSLKPEDTAVYYCAANLGYLDDLGYWGQGTQVTVSS", "polyreactivity (PSR sort gate)": "low polyreactivity"},
      {"sequence": "QVQLQESGGGQVQAGGSLRLSCAASGTIFLYAFMGWYRQAPGKERELVAAIDVGTTTNYADSVKGRFTISRDNAKNTGYLQMNSLKPEDTAVYYCAANLGYLEDLGYWGQGTQVTVSS", "polyreactivity (PSR sort gate)": "low polyreactivity"},
      {"sequence": "QVQLQESGGGQVQAGGSLRLSCAASGYISTHYFMGWYRQAPGKDREFVAGISNGSITNYADSVKGRFTISRDNARNTVYLQMNSLKPEDTAVYYGAAYEWTYVRFGYWGQGTQVTVSG", "polyreactivity (PSR sort gate)": "high polyreactivity"},
      {"sequence": "QVQLQESGGGQVQAGGTITLGYDMGWYRQAPGKEREFVAGIDTGAITYYADSVKGRFTNSRDNAKNTVYLQMNSLKPEDTAVYYCAAIQTHTYAHSYWGQGTQVTVSS", "polyreactivity (PSR sort gate)": "high polyreactivity"},
      {"sequence": "QVQLQESGGGVQAGGSLRLSCAASGSISAPILMGWYRQAPGKERELVAGIGGGANSYYADSVKGRFTVSRDNAKYTVYLQMNSLKPEATAVYYCAAGDYYWTNFGYWGQGTQVTASS", "polyreactivity (PSR sort gate)": "high polyreactivity"},
      {"sequence": "QVQLQESGGRLVQAGGSLRMSCAASGTIFSEANMGWYRQAPGKERELVATIGQGSTTNYADSVKGLFTISRDNAKNTVYLQMNSLKPEETAVYYCAVVTVDPVGFVYWGQGTQVTVSS", "polyreactivity (PSR sort gate)": "low polyreactivity"},
      {"sequence": "QVQLQESGGRQVQAGGSLRLSCAASGSNSYASGMGWYRQAPRKEREFVARIDPGAITNYADSVKGRFTISHDNAQNTVYLQMKSLKPEDNAVYYCAARVSTTDSRRILRKYLYYVHFDYWGQGTQLTVSS", "polyreactivity (PSR sort gate)": "high polyreactivity"},
      {"sequence": "QVQLQESGGSLVQAGGSLRLSCAASGNILVLPHGLVSPGAERELVATITGGSITYYADSVKGRFTISRDNAKNTVYLQMNSLKPGDTDVYYCAVINIYHRPHPYWGQGTLVTVSS", "polyreactivity (PSR sort gate)": "high polyreactivity"},
      {"sequence": "QVQLQESGRRPGAAGGSPRMSCAASGNIFWVAVMGRYRQAPGKERELVASIGFGCTTYYADSVKCRFTISRDNAKNTVYRQMISLKPEDTAVYYCAAPHYDWGELDYWGQGTQVPVSS", "polyreactivity (PSR sort gate)": "low polyreactivity"},
      {"sequence": "QVQLQESGRRPRAAGGSPRMSCAASGNIIWVAVMCRYRQAPVKERELVASIGFGCTTYYADSVKCRFTISRDNAKNTVYLQMISLIPEDTAVYYCAAPHYDWGELDFWGQGTQVPVSS", "polyreactivity (PSR sort gate)": "low polyreactivity"},
      {"sequence": "QVQLQESGSGLVQAGGSLRLSCAASGAIFPAYLMGWYRQAPGKERELVAGISYGSITYCADSVKGRFNISRDNAKNTVYLQMNSLKPEDTAVYYCAVWRPGVDEYYYWGQGTQVTVSS", "polyreactivity (PSR sort gate)": "low polyreactivity"},
      {"sequence": "QVQLQESRGCLVQAGGSLRLTCAASGTISDSGLMGWYRQAPGKERELVAGISSGGITNYADSVKGRFTLSRDNAKNSVYLQMNSLKPEDTAVYWGQGTQVTVSS", "polyreactivity (PSR sort gate)": "low polyreactivity"},
      {"sequence": "QVQLQESSGGLVQAGGSLRMSCAASGTIFHIHIMGRYRQAPGKEGEFVAAISYGTSTYYADSVKGRFTISRDNAKNTVYLQMNSQKPEDTAVYYCAVYDYLEVYFWYWGQGTQVTVSS", "polyreactivity (PSR sort gate)": "low polyreactivity"},
      {"sequence": "QVQLQESSGGLVQAGVCLQQSCAASGSIFTQHPMGRYRQAPANEREFVAAINVGSNTYYADSVKGRITISRDNAKNTVSLQMNILTPEDTAVSYCAATSIRWSVGYFRRDYWGQGTQVTVSS", "polyreactivity (PSR sort gate)": "low polyreactivity"},
      {"sequence": "QVQLQESVGGLVQAGGTQRLRCAASGNIFPTDRMGWYRQAPGKELEFVATISHGGSTNYADSVKGRFTISRDNAKNTVYLQMNSLKPEDTAVYYCAVWSLGRWRHYYWGQGTQVTVSS", "polyreactivity (PSR sort gate)": "low polyreactivity"},
      {"sequence": "QVQLQESVGGLVQASGSIFHVPNMGWYRQAPGNERELVAGLAGGGNTNYADIVKGRFTISRDNAKNTVYLQRNSLDTAVYYCAVVGFGRGTHIYWGQGTQVTVSS", "polyreactivity (PSR sort gate)": "high polyreactivity"},
      {"sequence": "QVQLQESVGGQVQAGGSLRLSCAASGTIFLYAFIGWYRQAPGKEPELVAAIDVGTTTNYADSVKGRFTISRDNAKNTVYLQMNSLKPEDTAVYYCAANLGYLDDLGYWGQGTQVTVSS", "polyreactivity (PSR sort gate)": "low polyreactivity"},
      {"sequence": "QVQLQESVGGQVQAGVSLRLICAASCTISQEDWMGWYRQAPAKEREFVAAIGLGSNTNYADSLKGRFTISRDNAKNTVDLQMNSLKPEDTAVYYCAVSVWQYSDHVYRGQGTQVTVSS", "polyreactivity (PSR sort gate)": "low polyreactivity"},
      {"sequence": "QVQLQQSVGGLVQAGGSLRLSCAASGNIFPTDRMGWYRQAPGKELEFVATISHGGRTNYADSVKGRFTISRDNATNTVYLQMNRLKPEDTAVYFCAVWSLGRWRHYYWGQGSQVTVSS", "polyreactivity (PSR sort gate)": "low polyreactivity"},
      {"sequence": "QVQLQVSGGGLVQAGGSLRLSCAASGSIFLTSEMGWYRQAPGKERELVAAIATGTSTNYADSVKGRFTISRDNAKNTVYLQMNSLKPEDTAVYYCATYHYWGQGTQVTVSS", "polyreactivity (PSR sort gate)": "low polyreactivity"},
      {"sequence": "QVQLRESGGGLVQAGGSLLSCAASATISYYREMGWYRQAPGNERELVAGIGVGTITYYADSVKGRFTISRDNAKNTVYLQMNSLKPEDTAVYYCAAHIEGNDSHAYWGQGTQVTVSS", "polyreactivity (PSR sort gate)": "low polyreactivity"},
      {"sequence": "QVQLVASGGGLVQAGGSLRLSCAASGRNFRSYVMGWYRQAPGKERDLVATITRSGGGTTYADSVKGRFTISRDNAKNTVYLHMKSLKAEDTAVYYCNAERRYSWYSQGDYWGQGTQVTVSS", "polyreactivity (PSR sort gate)": "high polyreactivity"},
      {"sequence": "QVQLVASGGGLVQSGGSLRLSCAASGFIFAYYAMGWYRQAPGTERELVAAISRGGRPYYADSVKGRFTISRDNAKNTVYFQMNSLKPEDTAVYYCAARRWRRYQSGGSYSGMDHWGQGTQVTVSS", "polyreactivity (PSR sort gate)": "high polyreactivity"},
      {"sequence": "QVQLVDSAAALVQAGGSQRLTCAASGLIFYYSVMGSYRQAPGKERELVARISTSGGSTYYADSVKGRFTISRDNAKNTVYIQMNSLKPEDTAVYYCAARGYRQYGWDCYCGQGTQVTVSS", "polyreactivity (PSR sort gate)": "low polyreactivity"},
      {"sequence": "QVQLVDSAGGLVQAGGSLRLSCDDSGRTFWYYTMGWYRQAPGKEREFLAAIRGSGTSTYYADSVKARYTISRDNAKNTVYFQMNSLKPEDTADYYCAAESPVYHLVTYDYWGQGTQVTVSS", "polyreactivity (PSR sort gate)": "high polyreactivity"},
      {"sequence": "QVQLVDSCGGLVQAGGSLRLSCAASGSISYYYAMGWYRQAPGKERELVAAITRTGTTNYADSVKWRFTISRDNAKNTVFLQMNSLKPEDTAVYYCAKRSTGRLQSYNYWGQGTQVTVSS", "polyreactivity (PSR sort gate)": "low polyreactivity"},
      {"sequence": "QVQLVDSGAGLVQAGGSLRISCAATGSTFPRYGMGWYRQAPGKERQMVAAISSGGRTNYADSVKGRFTISRDNAKNTVYLQMNSLKPEDTAVYYCAARIPYYFSYYFYSGMDYWGQGTQVTVSS", "polyreactivity (PSR sort gate)": "high polyreactivity"},
      {"sequence": "QVQLVDSGAGLVQAGGSLRISCVPPDSTTQSKLGDRIHRRLGKKVTWLPVLTSRGVGSYYADSVKGRFTISRDNAKNTVYLQMNSLIPEDTAVYYCNARYEVFYRYDYWGQGTQVSVSS", "polyreactivity (PSR sort gate)": "low polyreactivity"},
      {"sequence": "QVQLVDSGAGLVQAGGSLRLSCDASGSTFRGYAMGWYRQSPWKERELVAAITYISDSTYYADSVKGRFTISRDNAKNTVFLQMISLNPEDTAVYYCNAYYDGDWRYTSQVTGDLWGQGTQVTVSS", "polyreactivity (PSR sort gate)": "low polyreactivity"},
      {"sequence": "QVQLVDSGGCLVQAGGSLRLSCDASGRISQNAMGWYRQAPGKERELVAAITFSGGSTYYADSVKGRFTISRDNAKNTVYLQMNSLKPEDTAVYYCNVRQYTDGLKYDYWGQGTQVTVSS", "polyreactivity (PSR sort gate)": "low polyreactivity"},
      {"sequence": "QVQLVDSGGDLVKAGGSLRLSCDASGSTFRDYDMGWYRQAPGKERELVDAITGSGSSTYYADSVKGRFTISRDNAKNTVYLQMNSLKPEDTAVYYCAATWVVSYRVYRSYYWGQGTQVTVSS", "polyreactivity (PSR sort gate)": "low polyreactivity"},
      {"sequence": "QVQLVDSGGGFVQAGGSLRLSCAASGSILAQKAMGWYRQAPGKERELVAAISWSGGRTYYADSVKGRFTISLDNAKNYVYLQMNCLKPEDTAVYYCNKVRRASTVHPDNYWGQGTQVTVSS", "polyreactivity (PSR sort gate)": "high polyreactivity"},
      {"sequence": "QVQLVDSGGGLDQAGGSLRLSCASSGSSSNTMLWDGKDRRLGKKGSWSSTNYADSVKGRFTISRDNAKNTVYLQMNSLKPEDTAVYYCNAYHDYITEFNYWGQGTQVTVSS", "polyreactivity (PSR sort gate)": "low polyreactivity"},
      {"sequence": "QVQLVDSGGGLVDAGGRLRLSCAASGRTFYAYPMGGYRQAPRTERELVAAITKRDGITFYADSVKGRFTISRDNAKNTVYLQMKSLKPEDTAVDYCDATGYVGGIYGHYPRGYWGQCTQVTVSS", "polyreactivity (PSR sort gate)": "high polyreactivity"},
      {"sequence": "QVQLVDSGGGLVHAGGRLGLSREDYGSTFPYYSMGWYRQAPGKERELVAAISGGGGSTYYADSVKGRFTISRDNAKNTVYLQMNSLKPEDSAVYYCNAYKYISPGDYWGQGTQVTVSS", "polyreactivity (PSR sort gate)": "high polyreactivity"},
      {"sequence": "QVQLVDSGGGLVKAGGSLRISCPASGITLKYYSMGWYRPSPGKERELVAAITRSGVGTYYADSVKGRFTISRDNAKNTVYLQMNSLKPEDTAVYYCAARGGWLQTKYDYWGQGTQVTVSS", "polyreactivity (PSR sort gate)": "high polyreactivity"},
      {"sequence": "QVQLVDSGGGLVQAAGSLRLSCAASGSIFIFNTMGWYRQAPGKESELVASISSSGSTYYADSVKGRFTISRDNAKNTVYLQMKSLKPEDTAVYYCAATYYRPAYYGSYYYWGQGTQVTVSS", "polyreactivity (PSR sort gate)": "low polyreactivity"}
    ]}
  ]
}
